Measured values from patent US20110269680A1, “GLP-1 ANALOGS AND USES THEREOF” (PANACEA BIOTEC LIMITED, priority 2008, published 2011).

Molecular target: GLP-1 receptor
Assay: cell-based or functional assay

- EC50, Receptor Functional assay (intracellular cAMP in CHO/GLP-1R cells): 0.0503 nM
Substance: GLP-1(7-37) parent (from UniProt P01275 98-128) (peptide)
